Results reported in patent US20100209422A1.

Columns and labels:
[1] = target: low-molecular weight (LMW) form of Aβ42 (human); assay: SPR (BIAcore), antibody immobilized, LMW Aβ42 injected
[2] = target: protofibrillar (PF) form of Aβ42 (human); assay: SPR (BIAcore), antibody immobilized, PF Aβ42 injected
[3] = target: protofibrillar (PF) form of Aβ42 (human); assay: SPR (BIAcore), ratio of PF binding to LMW binding

Chain of low-molecular weight (LMW) form of Aβ42 (human) (peptide, as listed by the source): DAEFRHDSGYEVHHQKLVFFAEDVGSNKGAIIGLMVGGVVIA
Chain of protofibrillar (PF) form of Aβ42 (human) (peptide, as listed by the source): as above

| Substance | BIACORE Binding Analysis LMW [1] | BIACORE Binding Analysis PF [2] | Ratio (PF/LMW) [3] |
| --- | --- | --- | --- |
| 3D6 anti-Aβ antibody | 425 | 403 | 0.9 |
| 6E10 (antibody) | 400 | 541 | 1.4 |
| 82E1 (antibody) | 69.9 | 68.4 | 1 |
| monoclonal antibody 4G8 | 229 | 340 | 1.5 |
